# Measurements taken from patent publication US20220168331A1, “PRR-Activating and MicroRNA-Inhibiting Molecules and Methods of Using Same” (Duke University, priority 2019, published 2022).
# Entries after “also recorded” stand apart in the source; their conditions may differ.
# B1: RigantmiR-21: nuclease-resistant RNA composed of RIG-I-activating structure ICR4 and a complementary sequence to mature miR-21; SEQ ID NO: 2 (nucleic acid)
# chain: GGAUGCGGUACCUGACAGCAUCUUGAAAUAAGGACUGAUGCUCAACAUCAGUCUGAUAAGCUA
# modifications: nuclease-resistant RNA, modifications not given here
# Experiments:
# [1] = system: 4T1 mouse breast cancer cells, B16-F10 mouse melanoma cells, 403688 mouse sarcoma cells, and WM266.4 human melanoma cells; assay: IFN-β production (ELISA) by different cancer cells after first and second transfection with RIG-I agonists; format: cell-based; settings: DharmaFECT, one day after first and second transfection; FIG. 11
# Description: 4T1 mouse breast cancer cells, B16-F10 mouse melanoma cells, 403688 mouse sarcoma cells, and WM266.4 human melanoma cells were transfected with indicated RIG-I agonists using liposomal transfection agent DharmaFECT (DF). After overnight incubation, the cells was replenished with fresh culture media, followed by another transfection with the same RIG-I agonists. One day after first and second transfection IFN-β production by these cells were determined using ELSIA.
# [2] = system: mouse pancreatic, adenocarcinoma, and sarcoma cells; assay: Antitumor activities in mouse pancreatic cancer and sarcoma cells (overall statements); format: cell-based
# Description: (§1) The antitumor effects of RigantmiR-21 are not limited to melanoma cells. KPC-4839 (mouse pancreatic ductal adenocarcinoma), PANC-02 (mouse pancreatic adenocarcinoma) and mouse sarcoma cell line cells were transfected with indicated ICR4, RigantmiR-21, mutant RigantmiR-21, or anti-miR-21 (0.6 μg/ml) using DharmaFECT (DF). After overnight incubation, IFN-β production by these cells was determined using ELSIA. (n=3). As shown in FIGS. 4A-4C, RigantmiR-21 treatments induced cell death and IFN-β production by mouse pancreatic, adenocarcinoma, and sarcoma cells that are also resistant to RIG-I agonist ICR4.
# [3] = system: B16-F10 mouse melanoma cells; assay: IFN-β production (ELISA) by B16-F10 cells; format: cell-based; settings: transfected once or twice, 0.6 μg/ml, DharmaFECT, ELISA
# Description: (§2) B16-F0 and B16-F10 mouse melanoma cells lines are originated from the same parental cell line but they have different metastatic ability. B16-F0 cell line has no or marginal metastatic ability but B16-F10 cell line has potent metastatic ability. B16-F0 and B16-F10 cells (1×10^4) were treated with RIG-I agonist ICR4-liposome complex (0.6 μg/ml). After overnight incubation, cytotoxicity and IFN-β production by the cells were measured using MTT assay and ELISA, respectively. […] Tumor suppressor proteins, such as programmed cell death 4 (PDCD4) and phosphatase and tensin homolog (PTEN), and pre-miR-21 levels in B16-F0 and B16-F10 cells were measured using real-time qPCR. […] It was hypothisized that miR-21 would interfere with antitumor effects of RIG-I agonists in B16-F10 melanoma cells.
# (§3) To improve therapeutic effects of RIG-I agonists in B16-F10 cells, we designed and generated a novel RIG-I-activating RNA molecule (named RigantmiR-21) that is composed of a RIG-I-activating RNA structure (ICR4: 5′ppp-containg double stem-loop RNA) and a complementary sequence to mature miR-21. B16-F10 melanoma cells were transfected once or twice with RigantmiR-21, mutant RigantmiR-21, anti-miR-21, or ICR4 (0.6 μg/ml) using liposomal transfection agent DharmaFECT (DF). The expression of miR-21 target genes was determined using qPCR. IFN-β production was determined using ELISA. […] Anti-miR-21, ICR4, and RigantmiR-21 RNAs were complexed with in vivo transfection agent jet-PEI. Jet-PEI alone or RNA-jet-PEI complexes (25 μg) were injected thrice intratumorally into B16-F10 melanoma-bearing immunocompetent mice. (n=6).
# Additionally, conjugation of anti-miR-21 improved the ability of other types of RIG-I agonists, such as ICR2 and ICR2AS^4 (sequences shown in FIG. 6A) to induce IFN-β production by cancer cells.
# [4] = system: B16-F0 mouse melanoma cells; assay: Cytotoxicity (MTT assay) in B16-F0 cells; format: cell-based; settings: two transfections at various concentrations, DharmaFECT, MTT three days after first transfection
# Description: as §2
# B16-F0 mouse melanoma cells were transfected with ICR4, RigantmiR-21, mutant RigantmiR-21, or anti-miR-21 at various concentrations using DharmaFECT (DF). After overnight incubation, the cells were replenished with fresh culture media, followed by another transfection with the same dose of RNAs. Three days after the first transfection, cytotoxicity levels were measured using MTT assay.
# [5] = system: KPC-4839 (mouse pancreatic ductal adenocarcinoma); assay: IFN-β production and cell death in KPC-4839 cells; format: cell-based; settings: 0.6 μg/ml, DharmaFECT
# Description: as §1
# Mouse macrophage cells = assay: IFN-β production by macrophages re-treated with PRR agonists with or without 1-MT and CH223191; format: cell-based; settings: re-treatment with the same agonist in presence of mixture of 1-MT and CH223191; FIG. 10
# Description: Mouse macrophage cells were treated with MDA5 agonists (pIC-HMW and pIC-LMW), RIG-I agonists (ICR4 and RigantmiR-21), and STING agonists (2′3′-cGAMP and c-di-GMP). After overnight incubation, the cells were replenished with fresh culture media and treated with the same agonists in the presence or absence of a mixture of 1-MT and CH223191. (n=3).
# [6] = system: PANC-02 (mouse pancreatic adenocarcinoma); assay: IFN-β production and cell death in PANC-02 cells; format: cell-based; settings: 0.6 μg/ml, DharmaFECT
# Description: as §1
# miR-21 = assay: Expression of premiR-21 and miR-21 target genes (qPCR) in B16-F10 melanoma cells; format: cell-based, mouse; settings: 0.6 μg/ml, DharmaFECT
# Description: as §3
# [7] = system: mouse sarcoma cell line cells; assay: IFN-β production and cell death in mouse sarcoma cell line; format: cell-based; settings: 0.6 μg/ml, DharmaFECT
# Description: as §1
# [8] = system: B16-F0 mouse melanoma cells; assay: IFN-β production (ELISA) by B16-F0 cells; format: cell-based; settings: 12.5 nM, DharmaFECT, one day after first and second transfection, ELISA
# Description: as §2
# B16-F0 mouse melanoma cells were transfected with ICR4, RigantmiR-21, mutant RigantmiR-21, or anti-miR-21 at 12.5 nM using DharmaFECT (DF). After overnight incubation, the cells were replenished with fresh culture media, followed by another transfection with the same dose of RNAs. One day after the first and second transfection, IFN-β production by these cells were determined using ELSIA.
# B16-F0 mouse melanoma cells or bone marrow-derived dendritic cells (BM-DCs) were transfected once (x1) or twice (x2) with a complex of polyI:C (pIC) (0.6 μg/ml) and transfection agent jet-PEI. IFN-β production by the cells one day after each transfection was determined using ELISA.
# B16-F10 melanoma = assay: Survival of B16-F10 melanoma-bearing immunocompetent mice after intratumoral RNA-jet-PEI injections; format: in vivo, mouse; settings: RNA-jet-PEI complexes 25 μg injected thrice intratumorally
# Description: as §3
# 402230 sarcoma = assay: Survival of 402230 sarcoma-bearing immunocompetent mice; format: in vivo, mouse; settings: RigantmiR-21 1 mg/kg with jetPEI intratumorally once daily for three days, anti-PD-1 intraperitoneally twice at 7-day interval
# Description: Murine sarcoma 402230 cell line was treated single with RigantmiR-21 ([…]) in complex with liposome. IFN-β production 24 h after treatment (FIG. 12A) and cytotoxicity 72 h after treatment (FIG. 12B) were measured using ELISA and MTT assay, respectively. N=3. 402230 sarcoma-bearing immunocompetent mice were injected intratumorally once daily for three days with RigantmiR-21 (1 mg/kg) in complex with in vivo transfection agent jetPEI, N=5. (FIG. 12C). Sarcoma-bearing mice were also injected intraperitoneally twice at 7-day interval with anti-PD-1. jetPEI alone and jetPEI with isotype control antibody were used as control.
molecule,measurement,setting,value
B1,IFN-β production by different cancer cells,[1],differentially induce
same,antitumor activities relative to MDA5 agonist polyI:C,[2]; FIGS. 4A-4C,comparable
same,IFN-β production by mouse pancreatic cancer cells and sarcoma,[2]; figure legend FIGS. 4A-4C,improves
same,IFN-β production compared to ICR4 and mutant RigantmiR-21,[3],significantly increased
same,cytotoxic effects after repeated treatments,[4],gradually augmented; also recorded: significantly increased
same,cell death,[5],induced
same,IFN-β production,"[5]; overnight, ELISA",induced
same,IFN-β production with IDO inhibitor and AHR inhibitor co-treatment compared to PRR agonist alone,Mouse macrophage cells,enhanced
same,cell death,[6],induced
same,IFN-β production,"[6]; overnight, ELISA",induced
same,expression of premiR-21,miR-21,inhibited
same,miR-21 target gene (PTEN) expression,miR-21,upregulated
same,cell death,[7],induced
same,IFN-β production,"[7]; overnight, ELISA",induced
same,IFN-β production after first and second transfection,[8],incremental; also recorded: significantly increased
same,IFN-β production after first and second transfection,[8]; listed as RignatmiR-21,gradually increase
same,survival compared to repeated injections with ICR4 or anti-miR-21,B16-F10 melanoma,significantly improved the survival
same,"survival, RigantmiR-21 and anti-PD-1 antibody compared to RigantmiR-21 alone",402230 sarcoma,significantly improved survival
same,"survival, RigantmiR-21 and anti-PD-1 antibody compared to RigantmiR-21 alone",402230 sarcoma; listed as RignatmiR-21,synergizes
